This series deals with the molecule itself. Put plainly: crystal structure; sitting drop vapour diffusion at 293 K; truncated apo-TDO2 with 2 mM AMT, alone or after incubation with 1 mM inhibitor (Rac-1, Cpd-1, Cpd-4).

B1: truncated human apo-TDO2 (aa 39-389) with a C-terminal hexa-histidine tag (enzyme, UniProt P48775 39-389, looked up)
chain: GLIYGNYLHLEKVLNAQELQSETKGNKIHDEHLFIITHQAYELWFKQILWELDSVREIFQNGHVRDERNMLKVVSRMHRVSVILKLLVQQFSILETMTALDFNDFREYLSPASGFQSLQFRLLENKIGVLQNMRVPYNRRHYRDNFKGEENELLLKSEQEKTLLELVEAWLERTPGLEPHGFNFWGKLEKNITRGLEEEFIRIQAKEESEEKEEQVAEFQKQKEVLLSLFDEKRHEHLLSKGERRLSYRALQGALMIYFYREEPRFQVPFQLLTSLMDIDSLMTKWRYNHVCMVHRMLGSKAGTGGSSGYHYLRSTVSDRYKVFVDLFNLSTYLIPRHWIPKMNPTIHKFL
notes: human tryptophan-2,3-dioxygenase (TDO2), P48775.1, amino acids 39-389, heme-free (apo) form; S1 Text is said to show additional amino acids introduced as a linker or during subcloning; calculated molecular mass 42940.24 Da; also called tryptophan-2,3-dioxygenase; TDO2 aa39-389-His6; source: E. coli RP523 (hemB mutant, unable to synthesize heme), anaerobic expression, purified (HisTrap, HiTrap Q, …)
In the case of B1, the “stoichiometry N” value stood at 4.

The values are drawn from article doi:10.1101/2024.01.09.574827, “Discovery and binding mode of small molecule inhibitors of the apo form of human TDO2” (bioRxiv, 2024).
